Measured values published in the supplement of paper PMC12042874.
± gives the uncertainty stated by the source.

Assay: amyloid nucleation score (Sup35N fusion, yeast selection) (log enrichment); library NNK1; higher = more nucleation; inactive = no reads after selection
Outline: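 After 24 hours of induction with 100 μM copper sulfate, psi-negative yeast expressing peptides of 20 random codons fused to Sup35N were grown for 7 days at 30°C on medium lacking adenine and uracil. Input and output plasmid inserts were sequenced with Illumina, and sequences with under 100 input reads were discarded. Scores for nucleation are the DiMSum log enrichment of output over input reads, centred on the mode score of non-aggregating sequences.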

Substance	amyloid nucleation score
ASLHHKSWTDHADTMTPPRT	inactive
ASMLFRSHQCCLIHSGADIN	0.979 ± 0.29
ASNGVN	-0.099 ± 0.5
ASPHWGSCNKTLRDGPRQVL	-0.677 ± 0.65
ASRAFSVVDYSGLLRGS	0.498 ± 0.61
ASRFDCEDIFGRTCGYVHYF	-0.113 ± 0.79
ASRVQGMYYHVHQPLKQLWV	inactive
ASSSGFSMGLCQMYNGTFMG	-1.21 ± 0.94
ASTYMYGFSYIYMLVNRCEC	1.59 ± 0.14
ATGSMGQSSSTGDASKLASF	1.3 ± 0.32
ATMVMELMVSELGLEEVFDV	-0.216 ± 0.49
ATPMFNVPVHRCVKKV	-0.206 ± 0.46
ATRDYVSGANDGIGPQMMWV	0.324 ± 0.49
ATRFIEESTL	-0.942 ± 0.68
ATRSSSFRMHDKNLCLTVDM	0.855 ± 0.48
ATSDI	-0.076 ± 0.27
ATSGGYGRFLVIISFDWVGA	-0.34 ± 0.37
ATYSLIFEPWPGPRLVPMQG	-0.12 ± 0.62
AVFWSNYCSMSCMSKTKKKS	0.159 ± 0.51
AVGYYCKSINRKHFIVEKLQ	-0.298 ± 0.4
AVIAMYRVNAPSC	1.15 ± 0.41
AVIVVV	0.175 ± 0.39
AVMFVTCLIVSASGHLLYTL	1.39 ± 0.88
AVQYNKVKERTLSQPWTHHV	-1.86 ± 1.7
AVRHLPAPRHSMCLIWYCNC	0.156 ± 0.37

Substance	amyloid nucleation score
AVSDVTVIRRCMFIG	0.448 ± 0.47
AVSNLATEGRVYLKVRLESW	-0.991 ± 2.4
AVVAIYSQILRNGSVLSWFP	0.242 ± 0.51
AVYFSSFR	0.522 ± 0.33
AWFGYISYWNEFFLWDCFWS	-0.366 ± 0.4
AWKKFSWDRLSKP	5.16 ± 0.072
AWMSRIVNNPGSNTFSRQWL	-0.284 ± 0.71
AWVYSYSRSILMWGVTGLWV	0.77 ± 0.61
AYFRGRVNFSLTFLAYT	-0.098 ± 0.56
AYNLNLYNRCQVLMLISSTR	4.91 ± 0.048
AYNVVHSSLGTKGVRGSCAT	-0.74 ± 1.7
CAGWFRTFGAYKDAMARLAR	inactive
CARNNHELVNYFKAFIPVVA	0.751 ± 0.43
CASRNCGNYVK	inactive
CAVHYKLCDLYHT	0.381 ± 0.5
CAVVVGVSGGAHEGVGKTKY	-0.35 ± 0.45
CCFNYKSPWSMWFNLRLSNP	5.06 ± 0.071
CCIMSRIGTCLWVEWRWCRG	0.243 ± 0.39
CCQSFLLKSPSYRAMAFIWW	-0.929 ± 0.33
CCWNNSLS	inactive
CCYWMASALENRSRRIRLHV	-0.612 ± 0.84
CDCTNT	-0.78 ± 1.4
CDSYSKMPPGRNILVCQFCW	2.15 ± 0.11
CEWFPRHKMYLESVFVYKRL	-0.116 ± 0.56
CFCKGGPVVTRMWEGIYPC	-0.014 ± 0.27

Substance	amyloid nucleation score
CFGFFVWANHAYHAQRCVAS	1.29 ± 0.33
CFGRRRVRIELGTAWPFSVL	-0.754 ± 1.1
CFGSSRVSCEYTDDRDDCGM	inactive
CFKGF	0.946 ± 0.49
CFNLALLRVLAGTKLYSFMG	0.64 ± 0.35
CFSRHAICT	-0.863 ± 0.88
CFVGYQW	0.622 ± 0.63
CFVVAWCKTITV	1.02 ± 0.66
CFVVVCLFMKA	inactive
CFWVEMFFSETHMIKNYCIV	1.27 ± 0.61
CGALWALKV	-1.04 ± 0.78
CGCETDMGSA	inactive
CGDGPHHVLCLSVVDICVGC	-1.04 ± 1.6
CGDKNILTRIWLERVSVLAS	0.056 ± 0.33
CGDMWLTDSLHGMNCSLFRR	inactive
CGKSIEETSLRNPIPGNVLG	0.476 ± 0.55
CGMMVSEGSVSCRSLPIYLA	0.275 ± 0.34
CGYCD	-1.69 ± 2.4
CHCNL	1.81 ± 0.38
CHGCLGG	-0.312 ± 1.5
CHGKESRTVREVHDLLVYVS	-0.408 ± 0.78
CHLNFMCWPTAQDENMPIFG	-0.09 ± 0.31
CHVIIVQRYFMSVTLSQCWW	0.489 ± 0.24
CHWSCRSEVMPESVTDAGGW	-0.072 ± 0.67
CIDDFSNFVRNVGAFGEYSF	-0.752 ± 0.53

Substance	amyloid nucleation score
CIIMCLRSDPV	0.211 ± 0.3
CIIVNMFYWALFYFGSEMFS	0.738 ± 0.53
CIKNSLRRYMCAYFSWGRRG	-0.744 ± 1.2
CIMMRHMVSYEADLRTMFLN	3.58 ± 0.18
CIRMVRGSTGSTVNMSSRCS	0.347 ± 0.27
CISLTCVVYGSML	7.213 ± 0.048
CITTVPHQPMVLWTICFPTM	0.614 ± 0.95
CKSGDLSECCRIWHRWA	0.048 ± 0.27
CKVLCYIAYTWNLDCTEFEG	6.449 ± 0.063
CLAFQLDWLRMGLFKSMEGT	-0.384 ± 0.35
CLEVGFVCWNCNRLFKCLCQ	1.1 ± 0.56
CLFSWD	0.118 ± 0.3
CLGYGYSSEDTQTSLCSGVE	-0.642 ± 1
CLILTRCVSYGRPMTACLVL	0.16 ± 0.56
CLKLDNMTRLVTNGTLGSAS	inactive
CLLLVMTVTGGGSVTMLSQM	-0.078 ± 0.32
CLNWVCRRFWVSITHFWAWV	0.066 ± 0.51
CLQFSVEARRLLKLNVGALE	2.29 ± 0.13
CLQWPEYPDYSVGGAFRRTG	-0.311 ± 0.48
CLVHVRVSHNWDVTMMFGVR	0.555 ± 0.24
CLYICIMGRIDAISSHSQII	0.453 ± 0.43
CLYPVLQVPMCGNMAERQGV	0.074 ± 0.69
CMILFTNRQRVMRLVLCLSD	0.044 ± 0.49
CMYALT	0.015 ± 0.39
CNLIYCTFDYLNFWDYYTID	6.64 ± 0.054

Substance	amyloid nucleation score
CNLSNVSLLFRYELLISGSY	0.748 ± 0.35
CNRPGF	-0.249 ± 0.44
CNWPDLDLSNRKWNPMKSML	0.146 ± 0.69
CNYSSSTVGYRSDMRVCSDT	0.405 ± 0.61
CPITWNFLCGIVLIEYYRVV	7.04 ± 0.087
CPWTVMLHFSYDYCARGFKV	-0.505 ± 0.57
CQDGLDNLNCGAMVYFVVGD	2.25 ± 0.22
CQISI	-2.17 ± 2.4
CQSKYYIMRACCFMATLWYW	-0.475 ± 0.47
CQYVFVCRHFFLGKNHEALE	-0.462 ± 0.86
CRCTVNHVMVRLSRGCRDAH	inactive
CRLCLRKHLSVISSSAEYLP	inactive
CRSSHE	0.109 ± 1.4
CRSVCGRIS	0.177 ± 0.77
CRSYNYLIVMKDLLPSALKT	1.23 ± 0.36
CRYFSSSSGEAGQIFVVICG	-0.201 ± 0.67
CRYSACAKRMSSFCRVRMCL	0.194 ± 0.66
CRYYRCSQKLDKLVTFTKKS	0.722 ± 0.49
CSCYAM	3.25 ± 0.19
CSCYQALKLA	-0.49 ± 0.88
CSDCARIGLMSRCGDETW	0.132 ± 0.28
CSDRVKTLSFCWSPSVVFW	-0.636 ± 0.95
CSFGQIPCNLDQTGLLRARG	1.1 ± 0.55
CSFLRFQIVMCCRLLDRVLC	1.72 ± 0.63
CSFMCLARLVSYQIESLW	-0.062 ± 1.2

Substance	amyloid nucleation score
CSGCYPRLCESMLNGNSGYV	1.31 ± 0.31
CSGMMARPWIYLVGVYKISN	2.26 ± 0.17
CSKRTTYYFPWFICELTRLV	-0.195 ± 0.6
CSNLQLAHKRRISNWSNLWC	-0.029 ± 0.98
CSSVAS	0.113 ± 0.31
CSYDNVPDLFC	0.582 ± 0.68
CSYQNCLVN	-0.795 ± 0.29
CTIILL	2.78 ± 0.14
CTNATVPASSTERV	1.55 ± 0.5
CTSCQYKCNCWGCVRYQTWF	2.41 ± 0.27
CTSPLVLIHKYYYVMVAVHS	0.821 ± 0.55
CTVKLLMCQAISLTCSLGFF	0.534 ± 0.56
CTVLRRFIRYHTITVYMWL	0.257 ± 0.75
CVAWNIDW	0.069 ± 0.76
CVFGYCVALHF	6.18 ± 0.073
CVFRSYWVCLWSDNNGDVR	8.325 ± 0.07
CVGSIKVNSLSRLFCHLLCV	-0.187 ± 1.2
CVGVWVRFLTQQCSTHKQYE	-0.116 ± 1.2
CVHYLYEILQGILLNYSFLL	-0.737 ± 0.4
CVLPFGLSSG	0.483 ± 0.48
CVNFFGCHCVHN	7.735 ± 0.069
CVSCVSGILFEMCPSSFPNQ	-0.578 ± 0.9
CVTANRHDENITSLLWRIVQ	-2.36 ± 2.4
CVVWAEVRVR	-0.419 ± 0.79
CVWFFLFPVQAITLFDLESV	-0.033 ± 0.74

Substance	amyloid nucleation score
CVYVSMLH	-0.483 ± 0.85
CWTSFYDC	0.448 ± 0.49
CYALNWCRLPALHSFFQCRK	0.853 ± 0.65
CYAPSFWTYWCLCSCMVDPN	5.8 ± 0.081
CYDQKILLLLISVTYVRTSD	-0.34 ± 1
CYFCYQGYMID	-0.537 ± 0.33
CYLCSSSF	1.67 ± 0.24
CYLSNLAMSHSCMHYALTAA	-0.713 ± 1.4
CYMYFWNRVDFT	0.581 ± 0.17
CYRPFSQNLPSVMLEFILAE	0.146 ± 0.27
CYSKKVLHCFKTSCLTLQVT	1.27 ± 0.42
CYVHEFMDEPSRSNGDGVWC	-0.512 ± 1.2
CYYLFLHSCSYARGIFC	-0.366 ± 0.52
DAADMTGLFNRLLCVFEYVW	0.797 ± 0.66
DAASHYINLCNHSAEFSKVG	1.42 ± 0.53
DAGMH	0.189 ± 0.3
DAHAISINHYRLSQTLSVPW	-0.148 ± 0.35
DAILLHYSNDMLYSYYRRVG	-0.937 ± 0.65
DALWKVFKDWLGGADQRGFP	0.29 ± 0.78
DATTTLFL	-0.281 ± 0.77
DAVSGGVFNCVLFNKVLSLM	-0.597 ± 0.32
